Test results as given in patent US20130216547A1 (Regeneron, published 2013).

What was measured:
[1] = molecular target: T1, human big-endothelin-1 (big-ET-1) (human); assay: cell-based or functional assay
T1 peptide: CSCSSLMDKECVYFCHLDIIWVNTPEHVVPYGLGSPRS

mouse big-ET-1 [2] = molecular target: T2, mouse big-ET-1 (mouse); assay: cell-based or functional assay
T2 peptide: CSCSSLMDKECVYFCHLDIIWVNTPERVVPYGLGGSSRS

[3] = molecular target: T3, small-ET-1 (endothelin-1) (human); assay: SPR (Biacore T200), 37 C, mAb capture, peptide analyte
T3 construct: 21 amino acid peptide, same for mouse and human; also called human small-ET-1; EDN-1
T3 peptide: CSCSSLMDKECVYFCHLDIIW
Description: (§1) Measurements were conducted on a T200 Biacore instrument (Biacore Life Sciences division of GE Healthcare, Piscataway, N.J.). […] Peptide binding was monitored for 3 min while dissociation of mAb-bound peptide was monitored for 4 min in HBST running buffer (0.01 M HEPES pH 7.4, 0.15 M NaCl, 3 mM EDTA, 0.005% v/v Surfactant P20). Kinetic association (kₐ) and dissociation (kd) rate constants were determined by processing and fitting the data to a 1:1 binding model using Scrubber 2.0 curve fitting software.

[4] = molecular target: T1, human big-endothelin-1 (big-ET-1); assay: as above
Description: as §1

mouse big-ET-1 [5] = molecular target: T2, mouse big-ET-1; assay: as above
Description: as §1

Binder	Blocking IC50(M), 10 nM hBig-ET-1 + 3 nM hECE1; 293/ETaR/NFAT-Luc luciferase [1]	Blocking IC50(M), 20 nM mBig-ET-1 + 5 nM mECE1; 293/ETaR/NFAT-Luc luciferase (mouse big-ET-1 [2])	binding result [3]	Kd [4]	T½ [4]	koff [4]	kon [4]	Kd (mouse big-ET-1 [5])	T½ (mouse big-ET-1 [5])	koff (mouse big-ET-1 [5])	kon (mouse big-ET-1 [5])
H4H6329P (antibody, V domains shown, Human IgG4 Fc (prefix H4H)) VH: QVQLVESGGGVVQPGRSLRLSCAASGFTFGSYGMHWVRQAPGKGLEWVAVIWYDGSDEYYTDSVKGRFTVSRDNSKYTLYLQMNSLRADDTAVYYCARDGYRTRGNYFDYWGQGTLVTVSS VL: DVVMTQSPLSLPVALGQPASISCRSSQSLVYSDGNTYLNWFQQRPGQSPRRLIYKVSNRDSGVPDRFGGSGSGTDFTLKISRVEAEDVGLYYCMQGTHWPPTFGGGTKVEIK	3.3e-09 M	> 1e-07 M	no binding	0.297 nM	3900 s	0.000176 s⁻¹	595000 M⁻¹ s⁻¹	19 nM	3120 s	0.000223 s⁻¹	11600 M⁻¹ s⁻¹
H4H6338P (antibody, V domains shown, Human IgG4 Fc (prefix H4H)) VH: EVQLVESGGGLVQPGGSLRLSCAASGFAFSSYAMTWVRQTPGKGLEWVSSISGSGGSTYYADSVKGRFTISRDNSKNTLYLQMNSLRAEDTAVYYCAKARTGTHAFDIWGQGTMVTVSS VL: not shown			no binding		6 s	0.12 s⁻¹	454000 M⁻¹ s⁻¹		0.6 s	0.885 s⁻¹	190000 M⁻¹ s⁻¹
H4H6343P (antibody, V domains shown, Human IgG4 Fc (prefix H4H)) VH: EVQLLESGGGLVQPGGSLRLSCAASGFTFSSYAMSWVRQAPGKGLEWVSAISGSGVGTYYADSVKGRFTISRDNSKNTLYLQMNSLRAEDTAVYYCPKARTGTHAFDIWGQGTMVTVSS VL: not shown			no binding		36 s	0.018 s⁻¹	1.61e+06 M⁻¹ s⁻¹		18 s	0.0453 s⁻¹	1.8e+06 M⁻¹ s⁻¹
H4H6345P (antibody, V domains shown, Human IgG4 Fc (prefix H4H)) VH: EVQLVESGGGLVQPGGSLRLSCAASGFIFSSYAMTWVRQAPGKGLEWVSAISGSGVSTYYADSVKGRFTISRDNSKNTLYLQMNSLRIEDTAVYYCGKARTGTHAFDIWGQGTMVTVSS VL: DIQMTQSPSTLSASVGDRVTITCRASQSISRWLAWYQQKPGKAPKLLIYKASSLETGVPSRFSGSGSGTEFTLTISSLQPDDFGTYYCQQYNSYSSFGPGTKVDIK			no binding	87.4 nM	12 s	0.058 s⁻¹	663000 M⁻¹ s⁻¹	65 nM	6 s	0.0974 s⁻¹	1.5e+06 M⁻¹ s⁻¹
H4H6340P (antibody, V domains shown, Human IgG4 Fc (prefix H4H)) VH: EVQLVESGGGLVQPGGSLRLSCAASGFTFSSSAMSWVRQAPGKGLEWVSAISGSGVGTYYAASVKGRFTISRDNSKNILYLQMNDLRAEDTALYYCPKARTGTHAFDIWGQGTMVTVSS VL: not shown	2.1e-09 M	1.5e-09 M	no binding	11 nM	30 s	0.0249 s⁻¹	2.3e+06 M⁻¹ s⁻¹	47 nM	12 s	0.0603 s⁻¹	1.3e+06 M⁻¹ s⁻¹
H4H6334P2 (antibody, V domains shown, Human IgG4 Fc (prefix H4H)) VH: EVQLVESGGGLVKPGGSLRLSCAVSGFTFSIDWMIWVRQAPGTGLEWVGRIKRKTDGGTTDYAAPVKGRFTISRDDSKNTLYLQMNSLKTEDTAIYYCATGGFERWGQGTLVTVSS VL: not shown			no binding	225 nM	18 s	0.0349 s⁻¹	155000 M⁻¹ s⁻¹				
H4H6316P (antibody, V domains shown, Human IgG4 Fc (prefix H4H)) VH: QVQLVESGGGVVQPGRSLRLSCEASGFTFSSYGMHWVRQAPGKGLEWVAVFWYDGSNKYYADSVKGRFTISRDNSKNTLYLQMNSLTAEDTAIYYCARAYDAFDIWGQGTMVTVSS VL: not shown		> 1e-07 M	no binding	14.8 nM	1620 s	0.000428 s⁻¹	28800 M⁻¹ s⁻¹				
H4H6317P (antibody, V domains shown, Human IgG4 Fc (prefix H4H)) VH: QVQLVESGGGVVQPGRSLRLSCAASGFTFSSYGMHWVRQAPGKGLEWVAVLWYDGRNKYYADSVKGRFTISRDNSKNTLYLQMNSLRAEDTAVYYCARSYDAFDIWGQGTMVTVSS VL: DIQMTQSPSTLSASVGDRVTITCRASQSISSWLAWFQQGPGRAPKLLIYKASTLQSGVPSRFSGSGSGTEFTLTISSLQPDDFATYYCQQYRSYSPTFGQGTKVEIK		> 1e-07 M	no binding	5.42 nM	3480 s	0.000199 s⁻¹	36700 M⁻¹ s⁻¹				
H4H6311P (antibody, V domains shown, Human IgG4 Fc (prefix H4H)) VH: QVQLVESGGGVVQPGRSLRLSCAASGFTFSTYGMHWVRQAPGKGLEWVAVFWFDGSNKYYADSVKGRFTISRDNSKNTIYLQMNSLRAEDTAIYYCARAYDAFDIWGQGTMVTVSS VL: not shown			no binding	15.2 nM	2400 s	0.000292 s⁻¹	19200 M⁻¹ s⁻¹				
H4H6323P (antibody, V domains shown, Human IgG4 Fc (prefix H4H)) VH: QITLKESGPPLVKPTQTLTLTCTFSGFSLNTNGMGVGWIRQPPGKALEWLTLIYWNDDKRYSPSLKTRLTITKDTSKNQVVLTMTNMDPVDTATYYCARFGSGTYWGQGTLVTVSS VL: DIVMTQSPLSLPVTPGEPASISCRSSQSLLHSYGYNFLDWFLQKPGQSPQLLIYLGSHRASGVPDRFSGSGSGTDFTLKISRVEAEDVGVYYCMQALQTPLTFGGGTKVEIK	7.6e-09 M	4e-09 M	no binding	10.1 nM	120 s	0.00569 s⁻¹	565000 M⁻¹ s⁻¹	32.9 nM	36 s	0.0192 s⁻¹	580000 M⁻¹ s⁻¹
H4H6492N2 (antibody, V domains shown, Human IgG4 Fc (prefix H4H)) VH: EVQLVESGGGLVKPGGSLRVSCVASGFTFSNAWMTWVRQTPGKGLEWVGRIKSRTDGGTVDYVAPVKGRFTISRDDSKNTLYLQMNSLKAEDTAVYYCRADLDYWGQGTLVTVSS VL: DVVMTQSPLSLPVSLGQPASISCRSSQSLVHSDGITYLNWFQQRPGQSPRRLIYKISNRDSGVPDRFSGSGSGTDFTLKFSRVEAEDVGVYFCMQGTHWPYTFGQGTKLEIK	4.17e-08 M		no binding	70 nM	24 s	0.0297 s⁻¹	424000 M⁻¹ s⁻¹				
H4H6330P (antibody, V domains shown, Human IgG4 Fc (prefix H4H)) VH: EVQLVESGGGLVQPGGSLRLSCAASGFTFSNYAMSWVRQAPGKGLEWVSAVSGSGVGTYYADSVKGRFTISRDNSKNTLYLQMKSLSAEDTALYYCTKTLGGTHAFDIWGQGTMVTVSS VL: DIQMTQSPSTLSASVGDRVTITCRASQSISRWLAWYQQKPGKAPKLLIYKASSLESGVPSRFSGSGSGTEFTVTINSLQPDDFATYYCQQYNSYSSFGQGTKLEIK	1.7e-09 M	1.6e-09 M	no binding	22.9 nM	24 s	0.0324 s⁻¹	1.42e+06 M⁻¹ s⁻¹	50 nM	12 s	0.072 s⁻¹	1.5e+06 M⁻¹ s⁻¹
H4H6332P (antibody, V domains shown, Human IgG4 Fc (prefix H4H)) VH: EVQLVESGEGLVQPGGSLRLSCAASGFIFSSYAMSWVRQAPGKGLEWVSAISGSGVGTYYADSVKGRFTISRDNSKNTLYLQMNSLRAEDTAVYFCAKTLSGTHAFDIWGQGTMVTVSS VL: not shown	3.1e-09 M	1.2e-09 M	no binding	29.5 nM	18 s	0.0429 s⁻¹	1.45e+06 M⁻¹ s⁻¹	100 nM	6 s	0.196 s⁻¹	2e+06 M⁻¹ s⁻¹
